Drawing on patent US20170158753A1 (INTEGRATED BIOTHERAPEUTICS, published 2017), this text covers binding result and EC50 for six molecules.

Experiment [1] has as its target T1, glycoprotein from Sudan ebolavirus (SUDV) (Sudan ebolavirus (SUDV), UniProt Q66814 33-650).
T1 sequence: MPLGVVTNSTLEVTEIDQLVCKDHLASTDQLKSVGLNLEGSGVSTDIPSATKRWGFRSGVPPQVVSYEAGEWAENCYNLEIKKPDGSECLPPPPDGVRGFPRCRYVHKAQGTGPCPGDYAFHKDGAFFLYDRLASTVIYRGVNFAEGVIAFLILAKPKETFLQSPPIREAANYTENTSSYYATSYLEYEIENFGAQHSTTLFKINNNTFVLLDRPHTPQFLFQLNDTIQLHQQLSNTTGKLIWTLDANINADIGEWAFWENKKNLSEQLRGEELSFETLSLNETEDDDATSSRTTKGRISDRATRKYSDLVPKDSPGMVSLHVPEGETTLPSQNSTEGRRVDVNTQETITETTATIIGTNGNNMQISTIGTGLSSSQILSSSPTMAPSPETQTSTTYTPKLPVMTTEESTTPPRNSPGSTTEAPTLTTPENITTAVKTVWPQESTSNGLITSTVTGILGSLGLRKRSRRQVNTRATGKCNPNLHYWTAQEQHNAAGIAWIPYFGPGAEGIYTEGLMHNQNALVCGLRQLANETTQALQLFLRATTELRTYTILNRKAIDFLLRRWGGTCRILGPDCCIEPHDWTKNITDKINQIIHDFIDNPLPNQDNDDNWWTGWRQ
Kind of experiment: summary of reactivity by any method (ELISA, Western blot, BIACORE). A general note: In an ELISA, binding on a coated surface is turned into a signal by an enzyme label.

In experiment [2] the target is T2, glycoprotein from Marburg virus (MARV; Musoke isolate) (Marburg virus (MARV; Musoke isolate), UniProt P35253 19-648).
T2 sequence: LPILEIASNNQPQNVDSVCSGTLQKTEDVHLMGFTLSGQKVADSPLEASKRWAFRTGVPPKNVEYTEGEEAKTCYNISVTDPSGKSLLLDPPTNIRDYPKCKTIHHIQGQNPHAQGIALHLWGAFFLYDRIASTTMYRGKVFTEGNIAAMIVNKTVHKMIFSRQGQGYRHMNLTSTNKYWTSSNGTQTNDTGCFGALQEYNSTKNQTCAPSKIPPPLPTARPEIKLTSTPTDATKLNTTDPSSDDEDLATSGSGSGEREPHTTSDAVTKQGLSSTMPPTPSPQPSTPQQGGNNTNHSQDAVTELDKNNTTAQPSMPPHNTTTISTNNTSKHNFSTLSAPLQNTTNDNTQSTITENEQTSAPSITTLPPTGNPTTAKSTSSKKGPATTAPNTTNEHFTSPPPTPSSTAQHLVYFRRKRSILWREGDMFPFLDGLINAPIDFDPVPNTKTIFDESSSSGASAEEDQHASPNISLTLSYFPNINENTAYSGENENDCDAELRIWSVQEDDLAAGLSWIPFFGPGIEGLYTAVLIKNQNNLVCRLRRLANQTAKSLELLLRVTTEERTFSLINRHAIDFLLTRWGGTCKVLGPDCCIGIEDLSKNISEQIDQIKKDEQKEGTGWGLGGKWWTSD
The description is as above.

Another experiment has as its target T3, EBOV soluble GP (sGP) (Ebola virus (EBOV), UniProt P60170 33-324).
T3 sequence: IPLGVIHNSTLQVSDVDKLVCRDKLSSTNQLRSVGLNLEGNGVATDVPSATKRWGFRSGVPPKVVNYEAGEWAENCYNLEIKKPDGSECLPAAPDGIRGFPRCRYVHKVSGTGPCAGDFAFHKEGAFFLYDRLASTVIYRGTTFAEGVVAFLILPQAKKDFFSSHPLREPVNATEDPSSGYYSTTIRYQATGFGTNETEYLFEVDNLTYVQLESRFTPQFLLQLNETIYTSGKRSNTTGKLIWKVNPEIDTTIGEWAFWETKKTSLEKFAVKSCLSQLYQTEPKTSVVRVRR
The experiment in a line: ELISA on EBOV soluble GP (sGP), OD650 against nM mAb.

The target of experiment [3] is T4, glycoprotein from Reston ebolavirus (RESTV) (Reston ebolavirus (RESTV), UniProt Q66799 34-651).
T4 sequence: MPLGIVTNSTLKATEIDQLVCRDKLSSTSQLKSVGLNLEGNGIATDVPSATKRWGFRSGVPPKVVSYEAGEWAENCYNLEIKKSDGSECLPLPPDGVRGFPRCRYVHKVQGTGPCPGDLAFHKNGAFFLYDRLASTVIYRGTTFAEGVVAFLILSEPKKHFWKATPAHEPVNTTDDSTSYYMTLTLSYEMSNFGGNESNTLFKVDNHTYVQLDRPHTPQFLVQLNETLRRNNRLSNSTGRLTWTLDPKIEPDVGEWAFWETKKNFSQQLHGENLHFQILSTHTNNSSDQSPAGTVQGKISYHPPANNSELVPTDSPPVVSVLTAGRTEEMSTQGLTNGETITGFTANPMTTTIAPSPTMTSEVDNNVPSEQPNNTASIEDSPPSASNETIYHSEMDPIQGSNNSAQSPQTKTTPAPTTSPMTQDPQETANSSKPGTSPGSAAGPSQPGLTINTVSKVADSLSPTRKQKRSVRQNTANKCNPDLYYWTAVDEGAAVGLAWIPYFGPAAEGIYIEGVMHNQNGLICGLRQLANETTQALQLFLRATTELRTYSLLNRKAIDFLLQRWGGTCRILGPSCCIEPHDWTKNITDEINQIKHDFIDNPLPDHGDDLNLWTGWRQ
Kind of experiment: summary of reactivity by any method (ELISA, Western blot, BIACORE).

B1: m16G8 (antibody, V domains shown)
VH: EVQLQESGPGLVKPGASVKISCKASGYSFTGYYMNWVKQSPEKSLEWIGEINPSTGGTTYNQKFKAKATLTVDKSSSTAYMQLKSLTSEDSAVYYCVRYSHYYGSGSWYFDVWGTGTTVTVSS
VL: DIQMTQSPASLSASVGETVTITCRASENIYSNLAWYQQKQGKSPQLLVNAATNLADGVPSRFSGSGSGTQFSLKINSLQPEDFGSYYCQHFYVTPYMFGSGTKLEIKR
On to B1, for which the binding result in experiment [1] is recorded as “binds”; in experiment [2], “no binding”; in the experiment with EBOV soluble GP (sGP), “no binding (tested: about 67 nM (last point; axis to 100 nM))”.

B2: m2E4 (antibody, V domains shown)
VH: EVQLQESGPELVKPGASVKISCKASGYSFTGYYMNWVKQSPEKSLEWIGEINPSTGGTTYNQKFKAKATLTVDKSSSTAYMQLKSLTSEDSAVYYCVRYSHYYGSGSWYFDVWGTGTTVTVSS
VL: DIQMTQSPASLSASVGETVTITCRASENIYSNLAWYQQKQGKSPQLLVNAATNLADGVPSRFSGSGSGTQFSLKINSLQPEDFGSYYCQHFYVTPYTFGSGTKLEIKR
Turning to B2, the binding result in experiment [2] was “no binding”.

B3: m8C4 (antibody, V domains shown)
VH: EVQLQESGPELKKPGETVKISCKASGYTFTTYGMSWVKQAPGKGLKWMGRINTYSGVPTYADEFKGRFAFSLENSASTAYLQINNLKNEDTATYFCARGDGGHWFANWGQGTLVTVSA
VL: DIQMTQSPSSLSASLGGKVTITCKASQDINKNIAWYQHKPGKGPRLLIWYKSALQPGIPSRFSGSGSGRDYSFSISNLEPEDIATYSCLQYDNLPPTFGGGTKLEIKR
With B3, the binding result in experiment [3] and in experiment [2] was “no binding” each time. The EC50 with EBOV soluble GP (sGP) turned out to be 10.3 nM.

B4: m21B2 (antibody, V domains shown)
VH: EVQLQESGAELVRPGASVTLSCKTSGYTFTDYEMHWVKQTPVHGLEWIGAIDPETGGTAYNQKFKGKATLTADKSSSTAYMELSRLTSEDSAVYYCTGNYATDYWGQGTSVTVSS
VL: DIVMSQSPSSLAVSAGEKVTMSCKSSQSLFNSRSRKNYLAWYQLKPGQSPKLLIYWASTRESGVPDRFTGSGSGTDFTLTISSVQAEDLAVYYCKQSNYLWTFGGGTKLEIKR
Take B4: the binding result in experiment [2] is “binds”.

B5: m2D8 (antibody, V domains shown)
VH: EVQLQESGGELVRPGTSVKISCKASGYTFTNFWLGWIKERPGHGLEWIGDIYPGGHYTNYNENFKGKATLTADTSSNTAYMQVSSLTSEDSAVYFCFTQYYDMDYWGQGTSVTVSS
VL: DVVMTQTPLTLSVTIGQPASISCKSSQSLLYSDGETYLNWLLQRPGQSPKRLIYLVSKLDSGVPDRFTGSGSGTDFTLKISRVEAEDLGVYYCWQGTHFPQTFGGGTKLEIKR
On to B5, for which the binding result in experiment [1] and in experiment [2] was “binds” in each case.

B6: m17C6 (antibody, V domains shown)
VH: EVQLQESGPGLVQPSQSLSITCTVSGFSLTSYGVHWVRQSPGKGLEWLGVIWSGGSTDYNAAFISRLSISKDNSKSQVFFKMNSLQADDTAIYYCARNWFDYDNYYSMDYWGQGTSVTVSS
VL: DIQMTQTTSSLSASLGDRVTISCRASQDISNYLNWYQQKPDGTVKLLIYYTSRLHSGVPSRFSGSGSGTDFSLTISNQEPEDIATYYCQQYSNLPWTFGGGTKLEIKR
With B6, in experiment [1], the binding result is “binds”. The half-maximal effective concentration (EC50) with EBOV soluble GP (sGP) was 0.4 nM.

The EC50 is the concentration that produces a half-maximal response.
